Experimental data from a protein production outcome set (Wang et al. 2014).

Test: label from the status in PepcDB records

For “MGSRLAESSTPMKACEEVGRPSFTSEQTASSCVIDVRDNARISSASSDGTEVESVGTAIKGELDRTARPTFTAGKNKSVRFECDLDQSNSSNSSENGSSRKPEMGGKICFTVSSPNPTPLKLSDEMQTPGTIYPANMESGGRGRPRIRSQFVHSVSNIMENASLYKVYKDSHEGLDYEEQIEAETPSSETYGEKVEESSDEKLSKFEASFSPWLNQINENIAALNERTPGVGVITPGDRPIIGLVAAQWIENEQTEISPKMWDGNGIPNSTTKYKEDQKVSWHATPFEVRLEKALSEEGGQSLFPQRKLEVMMEEVEGDTDISQLHHSVQPNSVVSF”, the protein production was “failed”.

In the case of “MKRFINRRQELDFLEKQYREQNSSLVIIYGRRRIGKTALIKKFIEDKPAIYFLASEEAESQNIEYYKKAVGNFLKNPLIERLSGVGWDDIFDVIINAKINKKTVIVFDEFQNLCKTNPAFASIVQRIWDEKLKNHNFMLILSGSLVGMMQEHALSYSSPLYGRRTGQIKLKQFSFKEAKEFFPEASDDQFIWIYSIVGGVPKYLEMFKFEGDIYKAIEENILSRQSFLYEEPLFLLEKEVHEVGSYFSIIKSIALGNHKLSQIAQSLSTAQTKLTKYLNTLIDLDIVRREVPVTEEYPEKSKRGLYFINDNFIDFWFKFVYPYREQLELDNTEYVIENIKSKIVTNHISFIYEEVCRQILMDLIKTKEIDIQLDRIGKWWDSKSEIDIVGISKNTGHVVFGECKYSQRVVDIDVFFNLKKKAENIKVFPEQKELYILFSRTGFSERLLEFAKETENLILIKFP”, the protein production is reported as “failed”.

In the case of “PPGPCLPPRLQGRPKAKEIQLRWGPPLVDGGSPISCYSVEMSPIEKDEPREVYQGSEVECTVSSLLPGKTYSFRLRAANKMGFGPFSEKCDITTAPG”, the protein production is reported as “not failed”.

In the case of “KRSHLENALNYALENSETAYNEMFLECDKQFILESWLNDFDLTKDYNETMHLVFSIKDKPDEETMQGLLHSTWESLKIRLPEYKFALVPHAHQDHAHIHCFINKTNQLTRRRLRFKGHEDCKEFFNELRSEFAYRLNDHLLSEEYLYVNEPKLKELDNIKQQLQDLEKEEKALEQIKSPQDEWDLNKALQSEYLQELKYKNKAKALDIQNNHSTPLKQKISEFKIALFNHKDTSDDEKEQLDIDRIDKRKPVSEHLKNTNKHELYELLGFYQKELDKKQNHSAFKNFAILNGLDRDFERETNGYSVLKKKEMLLNKLEHLDKRLLDKNSHLLLAQ”, the protein production is reported as “failed”.

For “MRLIRSVLCSSSAGFGQGFCSPSLRRHLSARFPRGHGNALANFSSCARSRVHAYSSASSATSVGVPVAKMRFIDIGANLLDEMYTGQYNDKPYHPPDLSAVLERAWAAGLEKLMITAGSLKEARAALELAKTDERLYCTVGCHPTRCKEFEDHPGGPEAYLQELLEVLKEGQALGKVVAVGECGLVATDYERLHFCDADTQKKYFEAQFRLAKESGLPMFLHLRAAADDFLDITGRHLGDFPRGGVVHSFDGTAEEAARVLAVPQLAIGINGCSLKTDDNLAVVGGLPLERIMLETDCPWCEIRPTHAGRKHVSAEALAGVTGAKDRKKFMPGCQVKSRNEPANIRQVLEVVAGVKGRTDLEAVADVIFGNTERMFFPTA”, the protein production was “failed”.

With “MMKKMMVLYNETSGSSESKEIAERFKKAAEARGEAVILQPSNPDIDPEEMRKNAKENQVGVLVVIGGDGTIHHAVQNFKDTIRDYQIGIIPGGTVNNFARVLSIPLKEEDAFETILAGQTTPVDFGMVNQD” the protein production was “failed”.

With “MTAIYIGVMTGTSMDGVDFVAASFDPLHIHATLTLPFEPALRDELMALTLPGDNEIDRMGKADVGLAKLIGHGINMLIEQNHLDRHVIKAIGSHGQTIRHRPEHGFTLQIGDPHIITELTGIPVISDFRRRDMAAGGQGAPLVPAFHQAIFQHSTIHRVILNLGGIANVSLLPAGNPDGVYGFDTGPANILMDAWCERYTGHPYDENGNWAAYGQPIRALLERLQAHEFFSKKPPKSTGREDFNLDWLDDQLADWRNDELEYDELEDTPENVQATLLKLTTRAIKKAIYRSELDTGEVYVCGGGAYNSHLLEQLRWRLRKHHWSVQSTSVLGLSPTWVEATAFAWLAMRFMQQQSANLPSVTGAAGFRILGTITSV” the protein production was “failed”.

In the case of “MSLFGTTSGFGTSGTSMFGSATTDNHNPMKDIEVTSSPDDSIGCLSFSPPTLPGNFLIAGSWANDVRCWEVQDSGQTIPKAQQMHTGPVLDVCWSDDGSKVFTASCDKTAKMWDLSSNQAIQIAQHDAPVKTIHWIKAPNYSCVMTGSWDKTLKFWDTRSSNPMMVLQLPERCYCADVIYPMAVVATAERGLIVYQLENQPSEFRRIESPLKHQHRCVAIFKDKQNKPTGFALGSIEGRVAIHYINPPNPAKDNFTFKCHRSNGTNTSAPQDIYAVNGIAFHPVHGTLATVGSDGRFSFWDKDARTKLKTSEQLDQPISACCFNHNGNIFAYASSYDWSKGHEFYNPQKKNYIFLRNAAEELKPRNKK”, the protein production is reported as “failed”.

With “MKQVPDVNKIKFDPETKRIVRKDVPLMMNSFDKKAVEEAIRISERHGWETCVATMGPPQAVEVINEALRMGIERGYLITDPSLANSDTLITSRVLAAFALRYGPDLVLMGKYSLDGETSQVPAEVSALMGWPYVPSVSKIMISDHLELEQELENGIYTCSAPLPCVLSLSEKINRARAIKPDTPQMYDRIVQIDTKWLGLDLDGGRDSPTAVIGTEQVNSNRSPVFIDPGADMYRQIMEIIRVSR” the protein production was “failed”.

With “MENEKLPYISVIIIAYNRKEFLLDAIKSALNQTLDREYYEIIVIKNFQDDTIDNFIKENNIKGIISENKSLGGKISEALYVSKGEIVSFLEDDDLFFPNKLREVYDIFISNPNLVYYHNNFIKTNNRLFEIDYSENKKNKKIFLKLIELNNIKTINYLISKKLIAFNMSAITIRKSYFNDCLDILENIRIAHDMCFFFCLSGKSDTSKEILIYDKPLSIWFIHNSWSNTSCDLEIKNFKNKNFTIAKETLNAIVYIFNEFCIKNNLYNFYDNKQPLCDYLKLTISARKSQLYLLNEYEININDIKLFFKFVTMRKSIYLSGAFILVLFGKFISKKLSTKIFLYISFLLNTI” the protein production was “failed”.

In the case of “HMPSVIVVGGQWGDEGKGSIVAYLSLHDEPEIIARGGVGTNAGHSVVINGKKYAVRQIPTGFMQTKARLLIGAGVLVDPEVFFHELEQLKDFNVKDRVGIDYRCAIIEEKHKQLDRTNGYLHGKIGTTGSGCGPANADRVMRKAKQAKDVKELEPYLTDVAQEINDALDEGSLVLVEGTQGFGLSLYYGTYPYVTSKDVTASSVAADVGIGPTRVDEVIVVFKSFPTRVGAGPFPTEMPMEEADRLGLVEYGTVTGRRRRVGWFDFEMARYSARINGATMLAVTMLDKYDKEAFGVTDYDKLPRKAKEFIEEIEERVGVPVGLIKTGPELEHIIDRRDTI”, the protein production is reported as “not failed”.

With “LERMVQTRRGLEIIIDAASTLYDFKSMQRLAEGVLTQLASLLNVDCAGILVLRDAGDELAVLAGSGCYSRFIGTTGHSNSLDPDLRQMVEEAFRRRKHEFADHRTVLYIRTGSGREVVVLLQAERELSDTDRSLVEIFGSRLSIAFDNVILYRQLHEANTQ” the protein production was “failed”.

In the case of “MNLSKFPVYVQAAILALVLALVGYLVAQALQFSLKAEVIFAVGLAIGGFVVPLFLNRAPAGVAELASSQETCTLYVGNLPYRANEIAVRELFAEQGQVISVRLMKDKATGKRRGFGFVEMPAADAAKAIAALNDKEYQQRTLKVREANDKRDKDEREGSEVDA”, the protein production is reported as “failed”.

With “MAMRDLVNGGAACAVPGSSSSSNPLGALTNALLGSSSKTQERLKEIPNANRSGPRPQFYSEDQQIRSLPGSELDQPLLQPGAQGSEFFRGFRSVDQNGLGAAWDEVQQGGPMPPMGPMFEPVQPTFEGPPQRVLSNFLHSFVESSRGGIPFRPAPVPVLGLSQSDKQCIRDRSSIMARHFFADRGEEFINSQVNALLSSLDIDDGIQARGHVPGRFRELDDYWNESQAVVKPNLHPADNWAAEFNQHGMDHGGPDSWVQSFEQQHGVNGWATEFEQGQSQLMSSQMRSMDMQNIAAMEQTRKLAHTLSQDGNPKFQNSRFLQFVSKMSRGELIIDENQVKQASAPGEWATEYEQQYLGPPSWADQFANEKLSHGPEQWADEFASGRGQQETAEDQWVNEFSKLNVDDWIDEFAEGPVGDSSADAWANAYDEFLNEKNAGKQTSGVYVFSDMNPYVGHPEPMKEGQELFRKGLLSEAALALEAEVMKNPENAEGWRLLGVTHAENDDDQQAIAAMMRAQEADPTNLEVLLALGVSHTNELEQATALKYLYGWLRNHPKYGAIAPPELADSLYHADIARLFNEASQLNPEDADVHIVLGVLYNLSREFDRAITSFQTALQLKPNDYSLWNKLGATQANSVQSADAISAYQQALDLKPNYVRAWANMGISYANQGMYKESIPYYVRALAMNPKADNAWQYLRLSLSCASRQDMIEACESRNLDLLQKEFPL” the protein production was “failed”.

For “MLGNTLVGRYQIISHLGGGGFGETFVACDTHLPGLPKCVVKKLQPQANDPATLEIARRLFDTEAQVLYKLGSCDRIPQLLAYFEEDAEFYLVQEFIPGHDLSKELTPGKVFTQDEVTILLQEILTILEFVHQQNVIHRDINPRNLLRRQDGKLILIDFGAVKQITTQIVTPTGENKSTVIIGTPGYIPGEQAQGNPKFSSDIYAVGIVAIQALTGLLPHQLEHDADTHEIIWQNHAQVSSEFARFIDKMVCYDFRQRYAAATTALQALTELTQPASNTIAITPTLPPAKFRFNHTKKSIFIKLLLAILLTSATGIASVFVVNSINSNNATDLAKKGNTFFELQRYKDALSAYEQAVDIRPDYAPAWQGKGKTLFRLKQYQDALTAYDKAIQIQPDYVEAWSGRGFSLQNLQRYSEAIASFDKALQLNENYPEVWNARGEAFSNLKQYDQAIKSYDKAIEFNSDAYESFYNKGLALQSMKEYNEAINAYNKAIEIKSDYERAWYNLGNSLVNLNRYEDAFKAYDKAVQYKTDYAIAWLSRGNVLIILRRYPEALESFNQVIKFNPNNYQAWYGRGWSQHQNQRYAEAIESYKKAATIKPSNYEIWYSLGNSQYILQQYQEAIASYNKAVRYRPKHIESWYSRGNALFSLKQYKEAIASYEQAIKHKPDYSQAINARDEAQRQLQAATPKPVVIPVMPTPEFTNPPQDN”, the protein production was “failed”.

In the case of “MQVQVSGKHVDVGEALRARVSDEIALSIGKYFDRGGAAEVVVSKEGYAFRVDCSVKLASGQQLISHGSGGDAHAAFDAALAKIDTRIRRYKRRLKSHSAAATAKQVENAAMFVLRAPESDDVDEDWDIEDDHPTGAPAAMVIAETQAAMKTMTVSMAVMELDLTAYPAIVFRNAAHGGISVVYRRPDGNIGWIDPERTKSNGHGSTAS”, the protein production is reported as “failed”.

With “VTTVGFDVAARLGTLLTAMVTPFSGDGSLDTATAARLANHLVDQGCDGLVVSGTTGESPTTTDGEKIELLRAVLEAVGDRARVIAGAGTYDTAHSIRLAKACAAEGAHGLLVVTPYYSKPPQRGLQAHFTAVADATELPMLLYDIPGRSAVPIEPDTIRALASHPNIVGVKDAKADLHSGAQIMADTGLAYYSGDDALNLPWLAMGATGFISVIAHLAAGQLRELLSAFGSGDIATARKINIAVAPLCNAMSRLGGVTLSKAGLRLQGIDVGDPRLPQVAATPEQIDALAADMRAASVLR” the protein production was “not failed”.

For “RGIAVYVEHHNGNIHPVTYELIGKAREMASKIKQPVYCVFVGKDIKDKCSNLISYGVDEVFVYDEDEFKDFRIEPYSKAIENFIDKIKPTIVLVGGTTLGRSLAPRLAARFRTGLTADCTILDIQSNTDLDQIRPAFGGNIMAHINTPNNRPQFATVRYKIFSAPEKIENTTGKITLCKVEKKELKSKIKVLSVKEKNKEVG”, the protein production was “failed”.

With “MNLKQIAKDTAKTLQSYLTYQALMTVLAQLGETNPPLALWLHTFSVGKVQDGEAYVKELFREQPDLALRIMTVREHIAEEVAEFLPEMVRSGIQQANMEQRRQHLERMTHLSLSNPSPESEQQTISDTDWDH” the protein production was “failed”.

With “MPKLNLTSIDVLLSDDSDRRQLACKSNHSTVSSLPAMDSRESITSTSPEVAILLCTYHGQRYLPEQLASFEVQSHSNWKVWASDDGSEDGTHAILDAYSRKWPEGRLSICSGPSEGFAANFISLTCKDSIQADFYAYSDQDDIWNVNKLARAVQWLETVPVNIPALYCSRTRLVDSDDNEIGISPLFVRPPSFANALMQNIGGGNTMVFNNAARELFCEAGENTLVVAHDWWAYIAVTGCGGQVFYDREPTLRYRQHNGNLIGTNSNWSARFKRIHMLFQGEFRRWSDINIAALGALEHKLTPENREILQRFASGRKMSLIPRLIQFKRAGIYRQTLFSNFGLVVAAIFGKV” the protein production was “failed”.
